Source: US20250376519A1 (JIANGSU HENGRUI PHARMACEUTICALS, published 2025)
Residue numbers refer to the chain shown, from its start.

T1: human DLL3 (ACRO, DLL3-H52H4) (human, UniProt Q9NYJ7 27-492)
T1 construct: Bought
T1 sequence: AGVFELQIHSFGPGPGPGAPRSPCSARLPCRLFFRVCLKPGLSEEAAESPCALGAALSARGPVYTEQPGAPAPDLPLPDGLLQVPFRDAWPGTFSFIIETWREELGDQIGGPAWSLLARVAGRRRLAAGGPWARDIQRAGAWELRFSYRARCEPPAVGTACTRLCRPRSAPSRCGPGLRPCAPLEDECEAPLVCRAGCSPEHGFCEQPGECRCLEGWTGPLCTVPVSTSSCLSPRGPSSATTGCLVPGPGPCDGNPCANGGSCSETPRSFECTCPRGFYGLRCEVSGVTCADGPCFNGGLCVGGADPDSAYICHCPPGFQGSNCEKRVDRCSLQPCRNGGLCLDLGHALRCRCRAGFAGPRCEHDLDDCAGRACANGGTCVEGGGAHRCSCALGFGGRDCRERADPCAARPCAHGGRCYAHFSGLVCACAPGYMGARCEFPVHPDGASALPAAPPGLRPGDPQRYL

T2: human DLL3 on cells (human, UniProt Q9NYJ7 27-618)
T2 construct: Endogenous on H1184 and SHP77; Cell line is named under assay; also called H1184; DLL3/H82
T2 sequence: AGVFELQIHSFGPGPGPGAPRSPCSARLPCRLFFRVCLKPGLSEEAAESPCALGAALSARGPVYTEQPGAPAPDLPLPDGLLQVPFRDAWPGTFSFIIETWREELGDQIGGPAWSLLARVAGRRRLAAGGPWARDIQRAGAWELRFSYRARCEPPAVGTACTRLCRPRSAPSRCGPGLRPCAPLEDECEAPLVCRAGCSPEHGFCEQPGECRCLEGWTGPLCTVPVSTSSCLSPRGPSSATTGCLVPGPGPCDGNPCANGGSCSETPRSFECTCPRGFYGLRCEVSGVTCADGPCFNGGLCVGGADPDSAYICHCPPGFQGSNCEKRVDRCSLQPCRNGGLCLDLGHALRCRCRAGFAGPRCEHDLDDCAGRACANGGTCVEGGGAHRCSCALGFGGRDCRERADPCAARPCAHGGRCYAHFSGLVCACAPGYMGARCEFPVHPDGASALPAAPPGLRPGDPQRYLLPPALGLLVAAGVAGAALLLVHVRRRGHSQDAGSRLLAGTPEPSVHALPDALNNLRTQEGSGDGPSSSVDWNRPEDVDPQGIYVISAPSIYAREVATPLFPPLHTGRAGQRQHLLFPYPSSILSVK

B1: hu30L1H1 (antibody, human IgG1, kappa, V domains shown)
VH: EVQLVQSGAEVKKPGASVKVSCKASGYTFTDYYMNWVRQAPGQSLEWMGIINPYNGDTSYNQKFRGRVTITVDKSASTAYMELSSLRSEDTAVYYCARYHYGPHLEGYFDVWGQGTTVTVSS
VL: DIVMTQSPDSLAVSLGERATINCKASENVGYVSWYQQKPGQPPKLLIYGASNRYTGVPDRFSGSGSGTDFTLTISSLQAEDVAVYYCGQSYSYPLTFGQGTKLEIKR
B2: hu30L2H5 (antibody, human IgG1, kappa, V domains shown)
VH: B1 VH with Q3R, N55T, I70L
VL: B1 VL with G67A, Y86H
B3: hu30L2H6 (antibody, human IgG1, kappa, V domains shown)
VH: B1 VH with Q3R, G56V, I70L
VL: B1 VL with G67A, Y86H
B4: hu30L2H1 (antibody, human IgG1, kappa, V domains shown)
VH: B1 VH
VL: B1 VL with G67A, Y86H
B5: hu30L1H3 (antibody, human IgG1, kappa, V domains shown)
VH: B1 VH with Q3R, N55Q, I70L
VL: B1 VL
B6: hu30L2H7 (antibody, human IgG1, kappa)
heavy: not shown
light: DIVMTQSPDSLAVSLGERATINCKASENVGYVSWYQQKPGQPPKLLIYGASNRYTGVPDRFSGSGSATDFTLTISSLQAEDVAVYHCGQSYSYPLTFGQGTKLEIKRTVAAPSVFIFPPSDEQLKSGTASVVCLLNNFYPREAKVQWKVDNALQSGNSQESVTEQDSKDSTYSLSSTLTLSKADYEKHKVYACEVTHQGLSSPVTKSFNRGEC
B7: hu30L3H2 (antibody, human IgG1, kappa)
heavy: not shown
light: B6 light with D9K, P42S
B8: hu30L2H4 (antibody, human IgG1, kappa, V domains shown)
VH: B1 VH with Q3R, N55S, I70L
VL: B1 VL with G67A, Y86H
B9: hu30L3H5 (antibody, human IgG1, kappa, V domains shown)
VH: B1 VH with Q3R, N55T, I70L
VL: B1 VL with D9K, P42S, G67A, Y86H
B10: hu30L1H6 (antibody, human IgG1, kappa, V domains shown)
VH: B1 VH with Q3R, G56V, I70L
VL: B1 VL
B11: hu30L3H1 (antibody, human IgG1, kappa, V domains shown)
VH: B1 VH
VL: B1 VL with D9K, P42S, G67A, Y86H
B12: hu30L3H3 (antibody, human IgG1, kappa, V domains shown)
VH: B1 VH with Q3R, N55Q, I70L
VL: B1 VL with D9K, P42S, G67A, Y86H
B13: hu30L2H3 (antibody, human IgG1, kappa, V domains shown)
VH: B1 VH with Q3R, N55Q, I70L
VL: B1 VL with G67A, Y86H
B14: hu30L1H4 (antibody, human IgG1, kappa, V domains shown)
VH: B1 VH with Q3R, N55S, I70L
VL: B1 VL
B15: hu30L3H7 (antibody, human IgG1, kappa)
heavy: not shown
light: B6 light with D9K, P42S
B16: hu30L3H6 (antibody, human IgG1, kappa, V domains shown)
VH: B1 VH with Q3R, G56V, I70L
VL: B1 VL with D9K, P42S, G67A, Y86H
B17: hu30L3H4 (antibody, human IgG1, kappa, V domains shown)
VH: B1 VH with Q3R, N55S, I70L
VL: B1 VL with D9K, P42S, G67A, Y86H
B18: hu30L1H2 (antibody, human IgG1, kappa)
heavy: not shown
light: B6 light with A67G, H86Y

Tests used:
[1] = molecular target: T1, human DLL3 (ACRO, DLL3-H52H4); experiment: SPR Biacore 8K, Ab captured on Protein A
From the text: Test antibodies were affinity-captured with a Protein A biosensor chip (Cat. #29127556, Cytiva) for 18 seconds, and then the antigens human DLL3 (ACRO, DLL3-H52H4), cynomolgus monkey DLL3 (KACTUS, DLL-RM103), mouse DLL3 (KACTUS, DLL-MM103), human CD3D&3E (ACRO, CDD-H52W1), and monkey CD3D&3E (ACRO, CDD-C52W4) were allowed to flow through the surface of the chip for 180 seconds, followed by 600 seconds of dissociation. Reaction signals were detected in real time using a Biacore 8K (Cytiva) instrument to obtain association and dissociation curves. After the dissociation in each experimental cycle, the chip was washed and regenerated with a 10 mM glycine-hydrochloric acid solution (pH 1.5, Cat. #BR-1003-54, Cytiva). Data fitting was performed using a 1:1 Model.

human DLL3 on cells = molecular target: T2, human DLL3 on cells; experiment: flow cytometry, DLL3/H82 cells; design: key to Emax: geometric mean fluorescence intensity (flow cytometry)
Description: The plates were centrifuged at 300 g for 5 min, and the supernatant was removed. Different concentrations of test antibodies were added at 100 μL/well. The plates were incubated in the dark in a refrigerator at 4° C. for 1 h. After 3 centrifugal washes at 300 g, working concentrations of APC anti-human IgG Fc (BioLegend, 410712) or PE F(ab′)2-goat anti-human IgG (invitrogen, H10104) were added. The plates were incubated in the dark in a refrigerator at 4° C. for 40 min. After 3 centrifugal washes at 300 g, the geometric mean fluorescence intensity was measured on an Invitrogen flow cytometer, and the EC50 values for the binding of the antibodies to DLL3-expressing cells were calculated.

Binder | Kd [1] [pM] | koff [1] [s⁻¹] | kon [1] [M⁻¹ s⁻¹] | EC50 (human DLL3 on cells) [pM] | Emax (human DLL3 on cells)
B1 | 919 | 0.000787 | 857000 | 740 | 5870
B2 | 969 | 0.000907 | 935000 | 650 | 5570
B3 | 1080 | 0.000988 | 915000 | 690 | 5420
B4 | 658 | 0.000571 | 867000 | 890 | 5740
B5 | 1990 | 0.00185 | 929000 | 750 | 5560
B6 | 1090 | 0.000983 | 900000 | 830 | 5580
B7 | 891 | 0.000762 | 855000 | 440 | 5390
B8 | 1070 | 0.00104 | 966000 | 540 | 5440
B9 | 735 | 0.00082 | 1.12e+06 | 430 | 5250
B10 | 1380 | 0.00143 | 1.04e+06 | 560 | 5750
B11 | 362 | 0.00059 | 1.63e+06 | 510 | 5530
B12 | 1250 | 0.00131 | 1.05e+06 | 430 | 5300
B13 | 1410 | 0.00138 | 981000 | 590 | 4720
B14 | 1280 | 0.00116 | 905000 | 570 | 5360
B15 | 815 | 0.000853 | 1.05e+06 | 430 | 5450
B16 | 939 | 0.000894 | 952000 | 460 | 5340
B17 | 882 | 0.000956 | 1.08e+06 | 430 | 5340
B18 | 1320 | 0.00131 | 989000 | 860 | 6050
